Laboratory results published in US20240200091A1, “USE OF PROTOPORPHYRINOGEN OXIDASE” (BEIJING DABEINONG BIOTECHNOLOGY CO., LTD., priority 2021, published 2024).

Experiments:
Format in all cases: in vivo
[1] = tested on: Arabidopsis thaliana T1 plants; assay: oxyfluorfen tolerance of transgenic Arabidopsis thaliana T1 plants (spray, grade of pesticide damage); conditions: 7 DAT, number of plants of 24 per genotype, grades
Procedure, shortened: (§1)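 Saflufenacil (25, 100 g ai/ha), sulfentrazone (450, 900), flumioxazin (60, 240) and oxyfluorfen (180, 720) or water were sprayed on 18-day-old PPO-transgenic T1 plants, control-vector and wild-type plants, 24 per genotype. Seven days later, damage was graded: 0 as in water controls, 1 <10% injured leaf area, 3 100%.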

[2] = tested on: transgenic soybean plants; assay: flumioxazin tolerance of transgenic soybean plants (spray, grade of pesticide damage); conditions: for The grade of pesticide damage/plant: grade 0 / The grade of pesticide damage/plant: grade 1 / The grade of pesticide damage/plant: grade 2 / The grade of pesticide damage/plant: grade 3: 7 DAT, number of plants of 16 per genotype, grades
[3] = tested on: Arabidopsis thaliana T1 plants; assay: saflufenacil tolerance of transgenic Arabidopsis thaliana T1 plants (spray, grade of pesticide damage); conditions: 7 DAT, number of plants of 24 per genotype, grades
Procedure, shortened: as §1

[4] = tested on: Arabidopsis thaliana T1 plants; assay: sulfentrazone tolerance of transgenic Arabidopsis thaliana T1 plants (spray, grade of pesticide damage); conditions: 7 DAT, number of plants of 24 per genotype, grades
Procedure, shortened: as §1

[5] = tested on: transgenic soybean plants; assay: oxyfluorfen tolerance of transgenic soybean plants (spray, grade of pesticide damage); conditions: for The grade of pesticide damage/plant: grade 0 / The grade of pesticide damage/plant: grade 1 / The grade of pesticide damage/plant: grade 2 / The grade of pesticide damage/plant: grade 3: 7 DAT, number of plants of 16 per genotype, grades; for tolerance to oxyfluorfen: soybean
[6] = tested on: transgenic soybean plants; assay: saflufenacil tolerance of transgenic soybean plants (spray, grade of pesticide damage); set-up: key to damage levels rated at grade: grade 0 means that the growth status of plants is essentially consistent with those sprayed with the blank solvent (water); grade 1 means that the average of the damage levels of plants is less than 10%; grade 2 means that the average of the damage levels of plants is greater than 100%; grade 3 means that the average of the damage levels of plants is 100%; conditions: for The grade of pesticide damage/plant: grade 0 / The grade of pesticide damage/plant: grade 1 / The grade of pesticide damage/plant: grade 2 / The grade of pesticide damage/plant: grade 3: 7 DAT, number of plants of 16 per genotype, grades
[7] = tested on: Arabidopsis thaliana T1 plants; assay: flumioxazin tolerance of transgenic Arabidopsis thaliana T1 plants (spray, grade of pesticide damage); conditions: 7 DAT, number of plants of 24 per genotype, grades
Procedure, shortened: as §1

B1: PPO6A: nucleotide sequence encoding microbial protoporphyrinogen oxidase PPO6 (SEQ ID NO:6), Arabidopsis thaliana/soybean common codon usage bias (nucleic acid)
DNA: ATGTCTTCTCCTAATGGGAAGTATTTGATGCTTTACAGTACCACCGACGGTCACACAAAAACCATTATGGATACAATGGCTAAACATATAATGGAAGAAGCAAAAGTACAATGTGATGTTGTGGACATGAGAGATGGAGACAAATACGAGTTAGCTGCTTATGAGAAGGTGATGCTAGGAGCTTCTATTAGATATGGATTCTTCAGCCGCACTCTTCATACATATACCACTCATCATGTTGATGAACTTAACTCAATGCCTTCCGCTTTCTTTGGAGTCAATCTCACTGCTCGTAAAACTTCAAAGAACACTGCAATGACTAATGCATACACAAGAAAGTTTCTGGATCAATCCATGTGGGTTCCTCAATTATCTGGCGTTTTTGCTGGTGCTTTGTGGTATCCTAGGTACAATTTCTTTGACAGGGTTATGATTCAGTTCATCATGAAGGTAACTGGTGGTGAAACAAACACAACGAAAGAGATAGTTTACACTGATTGGGATGCTGTTCACAAATTTGCAACAGATTTTGTGCAGCTACCAGCCACGGCGATACCCCGGAGCAAGCCGGCGACGTCGGTCCCACCAGCTAGTGTGGCCAACTATGATAATGGGGCACGAGTAGCGCTTGTGGTTGTGGGAATCTCAGCAGCCATCATCTTTGGCCGTCGATTGATTCTCGCAAAGAGATTCTGA
modifications: The nucleotide sequence of PPO6A
[1]; oxyfluorfen 180 g ai/ha (1×)
  The grade of pesticide damage/plant: grade 0: 24 plant
  The grade of pesticide damage/plant: grade 1: 0 plant
  The grade of pesticide damage/plant: grade 2: 0 plant
  The grade of pesticide damage/plant: grade 3: 0 plant
[1]; oxyfluorfen 720 g ai/ha (4×)
  The grade of pesticide damage/plant: grade 0: 20 plant
  The grade of pesticide damage/plant: grade 1: 4 plant
  The grade of pesticide damage/plant: grade 2: 0 plant
  The grade of pesticide damage/plant: grade 3: 0 plant
[2]; flumioxazin 120 g ai/ha (2×)
  The grade of pesticide damage/plant: grade 0: 16 plant
  The grade of pesticide damage/plant: grade 1: 0 plant
  The grade of pesticide damage/plant: grade 2: 0 plant
  The grade of pesticide damage/plant: grade 3: 0 plant
[2]; flumioxazin 240 g ai/ha (4×)
  The grade of pesticide damage/plant: grade 0: 16 plant
  The grade of pesticide damage/plant: grade 1: 0 plant
  The grade of pesticide damage/plant: grade 2: 0 plant
  The grade of pesticide damage/plant: grade 3: 0 plant
[2]; soybean, flumioxazin at different concentrations (120 and 240 g ai/ha)
  tolerance to flumioxazin: high-resistant tolerance
[3]; saflufenacil 25 g ai/ha (1×)
  The grade of pesticide damage/plant: grade 0: 24 plant
  The grade of pesticide damage/plant: grade 1: 0 plant
  The grade of pesticide damage/plant: grade 2: 0 plant
  The grade of pesticide damage/plant: grade 3: 0 plant
[3]; saflufenacil 100 g ai/ha (4×)
  The grade of pesticide damage/plant: grade 0: 2 plant
  The grade of pesticide damage/plant: grade 1: 22 plant
  The grade of pesticide damage/plant: grade 2: 0 plant
  The grade of pesticide damage/plant: grade 3: 0 plant
[4]; sulfentrazone 450 g ai/ha (1×)
  The grade of pesticide: grade 0: 24
  The grade of pesticide: grade 1: 0
  The grade of pesticide: grade 2: 0
  The grade of pesticide: grade 3: 0
[4]; sulfentrazone 900 g ai/ha (2×)
  The grade of pesticide: grade 0: 20
  The grade of pesticide: grade 1: 4
  The grade of pesticide: grade 2: 0
  The grade of pesticide: grade 3: 0
[5]; oxyfluorfen 360 g ai/ha (2×)
  The grade of pesticide damage/plant: grade 0: 16 plant
  The grade of pesticide damage/plant: grade 1: 0 plant
  The grade of pesticide damage/plant: grade 2: 0 plant
  The grade of pesticide damage/plant: grade 3: 0 plant
[5]; oxyfluorfen 720 g ai/ha (4×)
  The grade of pesticide damage/plant: grade 0: 16 plant
  The grade of pesticide damage/plant: grade 1: 0 plant
  The grade of pesticide damage/plant: grade 2: 0 plant
  The grade of pesticide damage/plant: grade 3: 0 plant
[5]; oxyfluorfen at four-fold field concentration (720 g ai/ha)
  tolerance to oxyfluorfen: high-resistant tolerance
[5]; oxyfluorfen at two-fold field concentration (360 g ai/ha)
  tolerance to oxyfluorfen: high-resistant tolerance
[6]; saflufenacil 50 g ai/ha (2×)
  The grade of pesticide damage/plant: grade 0: 16 plant
  The grade of pesticide damage/plant: grade 1: 0 plant
  The grade of pesticide damage/plant: grade 2: 0 plant
  The grade of pesticide damage/plant: grade 3: 0 plant
[6]; saflufenacil 100 g ai/ha (4×)
  The grade of pesticide damage/plant: grade 0: 16 plant
  The grade of pesticide damage/plant: grade 1: 0 plant
  The grade of pesticide damage/plant: grade 2: 0 plant
  The grade of pesticide damage/plant: grade 3: 0 plant
[6]; soybean, saflufenacil at four-fold field concentration (100 g ai/ha)
  tolerance to saflufenacil: high-resistant tolerance
[6]; soybean, saflufenacil at two-fold field concentration (50 g ai/ha)
  damage levels rated at grade: 0
[6]; soybean, saflufenacil, compared with the control vector and CK
  tolerance to saflufenacil: different extents of tolerance
[7]; flumioxazin 60 g ai/ha (1×)
  The grade of pesticide damage/plant: grade 0: 24 plant
  The grade of pesticide damage/plant: grade 1: 0 plant
  The grade of pesticide damage/plant: grade 2: 0 plant
  The grade of pesticide damage/plant: grade 3: 0 plant
[7]; flumioxazin 240 g ai/ha (4×)
  The grade of pesticide damage/plant: grade 0: 22 plant
  The grade of pesticide damage/plant: grade 1: 2 plant
  The grade of pesticide damage/plant: grade 2: 0 plant
  The grade of pesticide damage/plant: grade 3: 0 plant
